Reference: paper PMC11528232 (Cell Reports Medicine, 2024)

Key:
FcγRIIIA_(F158) = FcγRIIIA_(F158) (UniProt P08637); test: SPR
FcγRIIA_(H131) = FcγRIIA_(H131) (UniProt P12318); test: SPR
FcRn = FcRn (UniProt P55899); test: SPR
FcγRIIIA_(V158) = test: SPR
FcγRI = FcγRI (UniProt P12314); test: SPR
human Claudin18.2 = human Claudin18.2 (Homo sapiens, UniProt P56856-2); test: flow cytometry on cells

Sequence of FcγRIIA_(H131) (P12318 34-317): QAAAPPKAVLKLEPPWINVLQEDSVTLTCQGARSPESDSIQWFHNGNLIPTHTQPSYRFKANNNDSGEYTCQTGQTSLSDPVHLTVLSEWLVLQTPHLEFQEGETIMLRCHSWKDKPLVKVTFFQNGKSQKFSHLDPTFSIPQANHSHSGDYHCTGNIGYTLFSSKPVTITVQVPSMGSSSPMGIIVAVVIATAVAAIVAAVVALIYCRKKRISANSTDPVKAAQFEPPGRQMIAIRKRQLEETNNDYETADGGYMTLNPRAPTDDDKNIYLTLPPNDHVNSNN
Sequence of FcγRIIIA_(V158) (P08637 17-208): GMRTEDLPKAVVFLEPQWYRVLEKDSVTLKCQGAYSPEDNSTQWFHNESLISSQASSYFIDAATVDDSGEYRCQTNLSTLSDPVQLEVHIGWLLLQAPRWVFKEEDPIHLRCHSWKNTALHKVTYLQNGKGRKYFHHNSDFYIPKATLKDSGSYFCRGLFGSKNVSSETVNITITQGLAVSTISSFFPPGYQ
Sequence of FcγRI (P12314 16-374): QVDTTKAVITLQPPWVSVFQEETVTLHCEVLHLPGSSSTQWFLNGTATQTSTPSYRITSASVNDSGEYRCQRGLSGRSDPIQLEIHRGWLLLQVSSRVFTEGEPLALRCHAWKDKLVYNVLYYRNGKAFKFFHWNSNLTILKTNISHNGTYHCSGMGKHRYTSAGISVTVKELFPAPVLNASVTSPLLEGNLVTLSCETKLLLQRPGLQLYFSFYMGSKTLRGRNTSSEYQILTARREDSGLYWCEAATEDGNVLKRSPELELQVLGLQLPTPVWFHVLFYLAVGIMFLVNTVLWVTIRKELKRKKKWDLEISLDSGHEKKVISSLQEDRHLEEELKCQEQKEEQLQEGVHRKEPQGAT
Sequence of FcγRIIIA_(F158) (P08637 17-254): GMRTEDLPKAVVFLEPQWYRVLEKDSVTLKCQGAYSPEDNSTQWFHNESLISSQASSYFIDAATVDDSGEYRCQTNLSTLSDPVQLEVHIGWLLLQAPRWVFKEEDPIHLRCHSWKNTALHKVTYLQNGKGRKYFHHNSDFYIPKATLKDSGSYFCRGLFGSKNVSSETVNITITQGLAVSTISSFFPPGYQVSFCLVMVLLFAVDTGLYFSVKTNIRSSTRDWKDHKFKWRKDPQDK
Sequence of FcRn (P55899 24-365, chain 1 of 2): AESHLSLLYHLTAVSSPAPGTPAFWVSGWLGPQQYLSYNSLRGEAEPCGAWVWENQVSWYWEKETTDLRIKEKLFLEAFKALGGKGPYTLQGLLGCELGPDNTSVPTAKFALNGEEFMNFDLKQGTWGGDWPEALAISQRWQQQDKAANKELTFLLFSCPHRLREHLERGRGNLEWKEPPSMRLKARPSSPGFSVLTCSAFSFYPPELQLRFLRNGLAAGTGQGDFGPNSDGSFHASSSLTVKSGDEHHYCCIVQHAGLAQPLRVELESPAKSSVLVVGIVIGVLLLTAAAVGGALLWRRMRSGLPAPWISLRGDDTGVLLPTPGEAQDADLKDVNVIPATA
Sequence of FcRn (P61769 21-119, chain 2 of 2, further chain): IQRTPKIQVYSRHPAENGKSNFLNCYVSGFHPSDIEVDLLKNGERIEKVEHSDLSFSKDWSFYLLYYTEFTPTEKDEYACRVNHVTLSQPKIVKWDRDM

Row | Molecule | Kd (FcγRIIIA_(F158)) | Kd (FcγRIIA_(H131)) | Kd (FcRn) | Kd (FcγRIIIA_(V158)) | Kd (FcγRI) | EC50 (human Claudin18.2)
1 | CM311 (antibody) | 330 nM | 2770 nM | 1530 nM | 78.9 nM | 7.23 nM | –
2 | CMG901 (antibody) | 490 nM | 6290 nM | 1730 nM | 126 nM | 5.95 nM | –
3 | Zolbetuximab analog (antibody, V domains shown) VH: QVQLQQPGAELVRPGASVKLSCKASGYTFTSYWINWVKQRPGQGLEWIGNIYPSDSYTNYNQKFKDKATLTVDKSSSTAYMQLSSPTSEDSAVYYCTRSWRGNSFDYWGQGTTLTVSS VL: DIVMTQSPSSLTVTAGEKVTMSCKSSQSLLNSGNQKNYLTWYQQKPGQPPKLLIYWASTRESGVPDRFTGSGSGTDFTLTISSVQAEDLAVYYCQNDYSYPFTFGSGTKLEIK | – | – | – | – | – | 2.2 nM
